Experimental data from the FLAb antibody collection (doi:10.1101/2023.12.08.570889).
Changes are numbered by the printed parent chain.

B1: unnamed (protein)
chain 1: QMQLVESGGGVVQPGRSLRLSCAASGFTFRTYGMHWVRQAPGKGLEWVAVIWYDGSNKHYADSVKGRFTITRDNSKNTLNLQMNSLRAEDTAVYYCARAPRYYDAYEAFDVWGQGTMVTVSS
chain 2: SYVLTQPPSVSVAPGQTARITCGGNNLGSKSVHWYQQKPGQAPVLVVYDDSDRPSWIPERFSGSNSGNTATLTISRGEAGDEADYYCQVWDSSSDHVVFGGGTKLTVL
B2: unnamed (protein)
chain 1: B1 chain 1 with D104Y, A105Y
chain 2: B1 chain 2
B3: unnamed (protein)
chain 1: B1 chain 1 with Y103D, D104E, A105Y, Y106L
chain 2: B1 chain 2
B4: unnamed (protein)
chain 1: B1 chain 1 with R30S, Y32F, G33A, Y103D, D104W, A105Y
chain 2: B1 chain 2
B5: unnamed (protein)
chain 1: B1 chain 1 with R30S, Y32F, G33A, Y103D, D104E, A105D, Y106W
chain 2: B1 chain 2
B6: unnamed (protein)
chain 1: B1 chain 1 with R30S, G33A, Y103D, D104E, A105Y, Y106W
chain 2: B1 chain 2
B7: unnamed (protein)
chain 1: B1 chain 1 with R30S, Y32F, G33A, A99S, D104E, A105Y
chain 2: B1 chain 2
B8: unnamed (protein)
chain 1: B1 chain 1 with Y103D, A105Y, Y106V
chain 2: B1 chain 2
B9: unnamed (protein)
chain 1: B1 chain 1 with A99S, Y103D, A105Y, Y106W
chain 2: B1 chain 2
B10: unnamed (protein)
chain 1: B1 chain 1 with R30S, G33A, Y103D, D104W, A105Y, Y106W
chain 2: B1 chain 2
B11: unnamed (protein)
chain 1: B1 chain 1 with R30S, G33A, Y103D, A105Y, Y106W
chain 2: B1 chain 2
B12: unnamed (protein)
chain 1: B1 chain 1 with R30S, G33A, A99S, Y103D, D104E, A105Y, Y106W
chain 2: B1 chain 2
B13: unnamed (protein)
chain 1: B1 chain 1 with R30S, Y32F, G33A, D104W, A105Y
chain 2: B1 chain 2
B14: unnamed (protein)
chain 1: B1 chain 1 with R30S, Y32F, G33A, Y103D, D104E, A105R
chain 2: B1 chain 2
B15: unnamed (protein)
chain 1: B1 chain 1 with R30S, Y32F, G33A, A105Y, Y106L
chain 2: B1 chain 2
B16: unnamed (protein)
chain 1: B1 chain 1 with Y103D, D104E, A105H, Y106W
chain 2: B1 chain 2
B17: unnamed (protein)
chain 1: B1 chain 1 with R30S, G33A, Y103D, D104E, A105R
chain 2: B1 chain 2
B18: unnamed (protein)
chain 1: B1 chain 1 with Y103D, A105L, Y106W
chain 2: B1 chain 2
B19: unnamed (protein)
chain 1: B1 chain 1 with A99S, Y103D, A105Y
chain 2: B1 chain 2

What follows are binders tested against TSLP, Q969D9 (assay: Kd (SPR)).
B1 was tested, and the Kd was 33.5 nM. Work on B2 yielded a Kd of 52.3 nM. In the case of B3, the Kd is reported as 129 nM. Binder B4 has a Kd of 90.8 nM. B5 gave a Kd of 894 nM. B6 showed a Kd of 633 nM. B7 gave a Kd of 44.5 nM. With B8 the Kd was 44.6 nM. With B9 the Kd was 197 nM. B10 was tested, and the Kd was 759 nM. Work on B11 yielded a Kd of 718 nM. Work on B12 yielded a Kd of 836 nM. Work on B13 yielded a Kd of 96.6 nM. B14 gave a Kd of 366 nM. In the case of B15, the Kd is reported as 62.6 nM. B16 showed a Kd of 170 nM. With B17 the Kd was 686 nM. With B18 the Kd was 61.1 nM. B19 showed a Kd of 186 nM.
